Source: publication PMC2606027

Experiments:
[1] = target: Full-length HIV-1 IN fused to the DNA binding domain of Gal4 (WT bait) (HIV-1); experiment: two-hybrid
[2] = target: KKK HIV-1 IN (D6K/E10K/E13K) fused to the DNA binding domain of Gal4 (HIV-1); experiment: two-hybrid; Gal4 DBD-IN bait and Gal4 AD-LEDGF IBD prey in S. cerevisiae Y187; β-galactosidase activity relative to WT bait/WT prey (100%); background: WT IN with empty prey vector
[3] = target: LEDGF IBD fused to Gal4 transcription activation domain (WT prey); experiment: yeast two-hybrid (β-galactosidase reporter); details: S. cerevisiae Y187; quadruplicate measurements; read off a plot

Question: “AAA LEDGF IBD (K401A/K402A/R405A) fused to Gal4 transcription activation domain (domain or fragment)” was tested. Which binding relative to WT (β-galactosidase activity) [1] did it give?
Answer: 5 % of WT

Question: With “EEE LEDGF IBD (K401E/K402E/R405E) fused to Gal4 transcription activation domain (domain or fragment)” as the substance, how does the β-galactosidase activity relative to WT-WT [2] read?
Answer: 40 % of WT-WT

Question: Which percent of parent [3] does the source give for “Full-length HIV-1 IN fused to the DNA binding domain of Gal4 (WT bait) D6K; E10K; E13K” here?
Answer: 1.2 % of WT/WT

Question: With “Full-length HIV-1 IN fused to the DNA binding domain of Gal4 (WT bait) E10K; E13K” as the substance, how does the percent of parent [3] read?
Answer: 1.3 % of WT/WT
